Measured values reported in the DeepSol protein solubility set.

Experiment: soluble on expression in E. coli; label from the status in PepcDB or PDB records

Row | Sequence | soluble on expression in E. coli
1 | MSLQRSYCYQLTRRFCQSHEHTKLAKWLNINSKLNPFRPDPPVGGSPFLHGVGDEDKPVYIPQDVRVGHTFVVGTTRVGKTRLASILINQDIRNGDAVIVVDPKGDQDLVRDMVAACKVSGRTEDFKIVHLGFPEQSAQYNPLKKFDQISEVATRITDAISAEGEGKQFAAFAWKYVNIVAICLEEMNQPITYQTIAFYISRLEQLLMSYADNILPNHYLNYHQEIDDIIEEHDSKIGKNNKTKSPMERHQAVIQYIKDHINKTIKSNNAEALHDQILIDLYDAAIMDKHYYDKITASVGPVLSEINKSNASKILSSKAQPGDIELMDVIKNKKVLYIGLDSLTNPNIAQAVGKAFLSDLVSTAGKIYKEEGHHHHHH | soluble
2 | MYRPKDHGWVEVIVGPMYSGKSEELIRRIRRAKIAKQKIQVFKPEIDNRYSKEDVVSHMGEKEQAVAIKNSREILKYFEEDTEVIAIDEVQFFDDEIVEIVNKIAESGRRVICAGLDMDFRGKPFGPIPELMAIAEFVDKIQAICVVCGNPATRTQRLINGKPAFYDDPVVLIGAMESYEARCRKCHVVPQKKEVMAGDPLEHHHHHH | soluble
3 | SVDYVFNKVMQPHQQMRIRVALGIEDDLRGGGYNVDQSKIAIGSGGFMGKGFLKGTQTKLKYVPEQDTDFIFCTVGEEQG | not soluble
4 | MGHHHHHHSHEPRVNTSALQKIAADMSNIIENLDTRELHFEGEEVDYDVSPSDPKIQEVYIPFSAIYNTQGFKEPNIQTYLSGCPIKAQVLEVERFTSTTRVPSINLYTIELTHGEFKWQVKRKFKHFQEFHRELLKYKAFIRIPIPTRRHTFRRQN | not soluble
5 | MKIGIIAAMPEELAYLVQHLDNTQEQVVLGNTYHTGTIASHEVVLVESGIGKVMSAMSVAILADHFQVDALINTGSAGAVAEGIAVGDVVIADKLAYHDVDVTAFGYAYGQMAQQPLYFESDKTFVAQIQESLSQLDQNWHLGLIATGDSFVAGNDKIEAIKSHFPEVLAVEMEGAAIAQAAHTLNLPVLVIRAMSDNANHEANIFFDEFIIEAGRRSAQVLLAFLKALD | soluble
6 | MGSDKIHHHHHHMELVSVKRIWEQGEHNAFTDLVLYQGTLFCVFREGSAHVSPDGALRILRSHDAGETWQSVALLTSAHADLRDGKLIEFRGELLLLGGGTQHDKSGLQSYLWRSKDGVHWSEPQAVADKGYWLWRLTEHQDALYGVGYRAGPDGDTRLYKSDDSVEFTPWMPVFNNQGYVNESSLVFHQGSCFCLLRRDPVWSDEFLGLLGHSLSPFKQWTWQTLDKRIGGPVLFVYQSRLMAVVRLYEGDIRTALVEINQDTGQLHEWLTLPSQGDTSYAGIVLDGDDLLVSYYSSHEQAMVSDLERSDTQDDKAQDKFKTMIYFAKIKLGQN | not soluble
7 | EDFAKSIQDFIENGKTLEDFRKDFDKIVAKHGWQYNGGRNWRSRIIYETNLRSSYQAGRYAQLQELKETMPYWEYVHNDAVTYPRVEHMHWDGLILRHDDPWWKTHFPINAWGCQCTVI | not soluble
8 | MGSDKIHHHHHHMSVLNAKECVSPITRSVKYHQQSAEIRALQLQSYKMAKMALDNNLKLVKDKKPAVILDLDETVLNTFDYAGYLIKNCIKYTPETWDKFEKEGSLTLIPGALDFLEYANSKGVKIFYISNRTQKNKAFTLKTLKSFKLPQVSEESVLLKEKGKPKAVRRELVAKDYAIVLQVGDTLHDFDAIFAKDAKNSQEQRAKVLQNAQKFGTEWIILPNSLYGTWEDEPIKAWQNKK | not soluble
9 | EGYEQDFAVLTAEITSKIARVPRLPPDEKKQMVANVEKQLEEARELLEQMDLEVREIPPQSRGMYSNRMRSYKQEMGKLETDFKRSRIA | soluble
10 | DDSAVTLFIPGYAGNRFSFGGMLQRFTAGGIANKSLVVMIDRHNHPHVTGELDAYRPMVQLIFATPRVAVRQQAAGVLAVVQYLIAHEHVQTINLVAHSMGGVVLFQYLTTAAKLVNLPEVRKVVTIGAPFNDSEVGQNTYPIENHPLTATGPTKTTPVYNYFLRTLQRLPNTISYLNIAGNIGDAAQSDGAVALNSALSLRFLLRPTRDQYQEFVVHGKNARHSRLHENYEVDRQIVQFFISRSHKKGCW | not soluble
11 | FDGIFHTVKLLEPIQQSNADPAASFALFQQKFPNLKRVANSTLNTFDVYNLLSGWKSSLTAYLNQVLALQQRIKAADQIFPNQKETLPKDENPNIFEVLGAYGGKGFFPTLGSNGLHLPPQLFQFFRDFQLSSFTIKDFEVALVSEPDIVQHDKVRYAFQVQ | not soluble
12 | MAKLVTENISKRFKNQDVLKHINITLENNEVYGLLGINGAGKTTLMKIICGILQQDSGEIKLDNRPMTRNDLHKVGSLIETPATYNHLSAQDNLKIVCLNESVDFSEINSVLSLVNLNVDKKKKVKDFSLGMKQRLGIAMALIKKPEILVLDEPSNGLDPYGIQELRELLKLLTEQGTSIIISSHILSEIQVLADHIGIIHEGELKYQQRNNKDENLEEIFFKITKGDYK | not soluble
13 | MGVILLLLIIVFSFSKEAYYCIQVLSSRDLSSAERAYRKLADYPHARIEKIGDYYTVRVGLWENKSKAKEYLSQVKSVYPGAFLRTCYYIEDRIVSINKGNVKKKVESFNGKELVLHGKNEKELICKAVKKVFEDIVSFEGKLTKREITFKSYFPYSVADAVNYALILNKKEGFIPVRCRVYKRDKITYVLELEGFKNGKVKGIKAVDYASVTYRNKVLRLKLIF | not soluble
14 | MSLIASIGELLIDLISVEEGDLKDVRLFEKHPGGAPANVAVGVSRLGVKSSLISKVGNDPFGEYLIEELSKENVDTRGIVKDEKKHTGIVFVQLKGASPSFLLYDDVAYFNMTLNDINWDIVEEAKIVNFGSVILARNPSRETVMKVIKKIKGSSLIAFDVNLRLDLWRGQEEEMIKVLEESIKLADIVKASEEEVLYLENQGVEVKGSMLTAITLGPKGCRLIKNETVVDVPSYNVNPLDTTGAGDAFMAALLVGILKLKGLDLLKLGKFANLVAALSTQKRGAWSTPRKDELLKYKEAREVLAEGHHHHHH | soluble
15 | MSNRNLRSSTNSEFSEGQHQTPSSDSSGHGEDQPQASPGPNKKSHTPKKNISKGAVLHEKPMTVMVLTATEPFNYKEGKENMFHATVATESKYYRVKVFNMDLKEKFTENQFITISKYFNSSGILEINETATVSEAAPNQMFEVPKNIIRSAKETLKISKIKELDSGTLIYGVFAVEKKKVNDKSITFKIKDNEDNIKVVWDKEQHNINYEKGDKLQLFSFHLRKGNGKPILHSGNHSFIKGEKLLKESFEGDGYHKGPKQVVALKATKLFTYDSIKSKKMFHATVATDTEFFRVMVFEENLEKKFIPGNTIALSDYFGMYGSLAIHEYSSVSEVKSQNKEDSSSSDERPIEHLKICDLHLQTEERLVDGEFKVYRKSSGNNCICYGIWDDTGAMKVVVSGQLTSVNCEIGNTIRLVCFELTSNADEWFLRATRYSYMEVIMPEK | not soluble
16 | MQSISNCPIGLVSKNTINSASTIAEWVACPWKYINVVGSGRYVSNKPDKITRYDLLKAAQEAEMQELLTRNDMKGRHKRNKKSKIALETIAEENSSTESLF | not soluble
17 | GPGSMGTMKDKNKCTFRYFEVLPIDHEPEYQNGYVCDICFMEYSEGPFFHCSKSGKDVCLRCGGKMGLTPFTALVSKVMRPTVYWSESESSRAIALCYQIHRDILGCHFIDGANLLISTRDDLPSYFIDSNSCIEKSIVLSRSDIERRFPWAGEVAEVMGVNAVSFHETSACNDQSRLCFLSSFRVEGAFIEFRFSDGFCELVHCENGTIVAIRDSAVLSCFLMGLPVRWGRSLPKAASSVLEWYLKGGQR | not soluble
18 | LFAAIVDNLSDGIYVLQDDRVVYLNERFAQLFGHGDAGSLLMRELDDILPHGEGKEIVGRIHAELLAGEPSSVAWGQPFAHMDGTPVWLEMEARRIRLNGRPAILGVCHDRT | not soluble
19 | MSLRFVDDEGHYNVSFFHVNDVHAHLDQFASSGTSCDDPEKGCYGGYARIKTKVTELREQYPDNLWLNAGDEFQGTLFYTYYGGEKIAETLNELKFDAMTLGNHEWDGGDEALGQFLLNLTFPIVSCNVKSEVESLNETIKNYHIFEEHEIAVIGATTTTTPGISSVGNTTTFLDPVAEVQKAVWQIRNETEVNRIILLSHLGYEEDQDLAAKTEGISLIIGGHSHTLLGDMEDAKGDYPTMVEDLNGHEVFIVTAYRWGEYLGAIDLTFDDDGHALAYHGAPIHMDNSTSLDEELDTKIQGWAEAFADFAAEVLGETDAVLVQETCQEGDCLLGQVMADAMYEYRYNQTEGTDDEPALALINSGGVRAEINEGPITRGEVLTAFPFGNAIVELEFSGADLRKILEGAVSYVNQFNGDEITSWFQVSRGVRIEFNPDNEPGDRLVNVTIQGEAIDDERDYRVVTLDFLAGGGDSIFVATDDFITLDTQDEVLTQYIVARTPLSPELEERVVENDGEGHHHHHH | soluble
20 | MSLKILICSDTHLGAGEKSHCLKDDCYLAFEEILQQANQEDVDLILHSGDFFDDQNPSKYCLTKTMELMRKYLMGKPKNSFDVAYTYEHNQEDNGFSMNQGIKYPMYVIHGNHDIPSGIEHVAGLDILQTAGLVNFIGKAEDISEIDNKTDQTILHLSPILLQKGTTRIALYGMSYKKNEEMNRLWASSQVQIDEPDGDVFKILLIHQDRILRNTLTTFPEELLKDRFNLIVFGHEHSSQVEEGTDVQIIQTGSSFPLSICEFEKAEKFIGLAHINGMKINMNKIALRNVREVFYEVVQMSQMIEGSANLEMVEHYIREEVQNFFDHVNTHSKTMLPLARIIIEYKSLGCIPNLRKMAFEFEKNIVNKGDCIKLKKKIQKREGHHHHHH | soluble
21 | GPGSMTSLNTELALAKRFHMLSKNYSNRPVIARRNTLPTLVRFIRSNDRETRHYSLSALLLLAQHEENVELLCLERGLVPGVYAVYKDADYDDPQLREIADQILNCLEPVLQGRDPRKASQTSVTPVGSSSDAVDSDPLNDSFSPSRRARAGRVLRGVGSDAIHTVLLDIPALDPNGGDNIEAIEDIFQTTRGVLSYSIFVENRQARLFVTCATQVVQQVLSDSGFESVVVRDDVVNQEMFGGGADGSAGLNSGGNRSNTSYYDGGSPQHRPSYLQSVANSIYQSALVLGGGSRNNDTLSARVNEQRTREQEGESTFGYISKTLSKWW | not soluble
22 | MDSIPLEKPHVVSLIGGFGYREPIFRKVLTTAMLDPGINYTLISGPSLDPSKLGGVPKNVRILNFVEDTYPYIKSSDAVIAPGGHSTIMEALSFGVPILSFPDEGHSEQESNAAVVEEEGYGRMLSYSTPPEVILECIREVIEDEAYRNKVERLQRLSGELEHHHHHH | soluble
23 | MGSDKIHHHHHHMTLDLKQEKGREIFFRLAEKADVIIENFVPGVVKKLGVDYEAVKKVKPDIIYCHVSGFGQDGPYRDRPAFDQLIQGEAGIISYTGTRETPCKINVPITDLLASMYGAYAVLAALLRREKTGEGMEIDISLFDCAVTMMLNLMNMAIVEGMKDEELRMGTKYFLATPYEPYPAGDGKLVNVVVATEWHWKEFCKAVGLEELLDDPRFATNQQRLKHREQLERIIIEKFREKPRDDWIEILLKAGVPCGAVNTIQEVIEHPQTKHRKTVVEVDYPELGKIKLFNNPVKFSGFEVEVRRPPKLGEHTEEILKSIGLSEEEIADLRA | not soluble
